Experimental data from patent US20210147523A1 (TEIJIN PHARMA, published 2021).

T1: human SPNS2 (human, UniProt Q8IVW8 1-549)
T1 construct: S1P transporter; in Cell ELISA and S1P assays on Flp-in 293 cells that also express human SphK1; also called Spinster homolog 2; native type
T1 sequence: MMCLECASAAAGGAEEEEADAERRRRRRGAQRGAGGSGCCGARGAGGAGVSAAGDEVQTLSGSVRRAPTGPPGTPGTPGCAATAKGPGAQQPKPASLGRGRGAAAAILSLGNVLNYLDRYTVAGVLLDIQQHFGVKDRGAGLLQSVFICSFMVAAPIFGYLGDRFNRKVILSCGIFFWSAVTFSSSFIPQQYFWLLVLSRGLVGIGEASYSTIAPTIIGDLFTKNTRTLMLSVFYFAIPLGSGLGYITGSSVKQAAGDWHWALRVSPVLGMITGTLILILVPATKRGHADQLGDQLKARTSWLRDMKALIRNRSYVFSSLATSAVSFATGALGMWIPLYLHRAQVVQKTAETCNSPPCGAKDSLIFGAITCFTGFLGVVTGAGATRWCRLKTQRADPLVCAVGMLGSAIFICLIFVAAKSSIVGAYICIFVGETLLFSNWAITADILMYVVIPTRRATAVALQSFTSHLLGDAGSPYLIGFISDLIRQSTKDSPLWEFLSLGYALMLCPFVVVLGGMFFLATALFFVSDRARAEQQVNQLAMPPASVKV

T2: mouse SPNS2 (mouse, UniProt Q91VM4 1-549)
T2 construct: on Flp-in 293 cells that also express human SphK1
T2 sequence: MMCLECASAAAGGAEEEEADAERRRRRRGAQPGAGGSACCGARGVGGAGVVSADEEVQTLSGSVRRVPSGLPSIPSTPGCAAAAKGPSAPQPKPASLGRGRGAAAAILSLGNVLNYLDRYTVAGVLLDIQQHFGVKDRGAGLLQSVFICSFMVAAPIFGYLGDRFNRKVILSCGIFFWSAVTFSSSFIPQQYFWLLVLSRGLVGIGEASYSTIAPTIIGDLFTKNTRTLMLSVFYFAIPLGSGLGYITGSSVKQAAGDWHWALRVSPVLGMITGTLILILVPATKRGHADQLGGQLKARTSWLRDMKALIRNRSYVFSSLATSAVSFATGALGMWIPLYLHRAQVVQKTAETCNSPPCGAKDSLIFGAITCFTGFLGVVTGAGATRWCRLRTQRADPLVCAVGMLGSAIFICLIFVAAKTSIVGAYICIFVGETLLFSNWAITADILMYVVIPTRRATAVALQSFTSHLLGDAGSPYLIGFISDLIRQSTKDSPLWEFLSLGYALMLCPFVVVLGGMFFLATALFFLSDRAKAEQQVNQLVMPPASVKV


What was measured:
human SPNS2 [1] = molecular target: T1, human SPNS2; assay: Cell ELISA
Protocol: (§1) Human and mouse SPNS2 and human SphK1 double stable expression Flp-in 293 cells were added to a poly D lysine coat 96-well plate (Corning, 356461) in a density of 1×10⁵ cells/well and was cultivated overnight, and then the culture medium was removed. An anti-SPNS2 antibody solution was adjusted into 20 μg/mL using 0.2% FBS/3% BSA/PBS, and 0.2% FBS/3% BSA/PBS (60 μL) was added to the antibody diluted solution (20 μL) to prepare seven-step diluted solutions by four fold serial dilution. Each diluted solution of the anti-SPNS2 antibody was added in a volume of 30 μL/well, and reacted for about one hour at room temperature. The antibody solution was removed, and the residue was washed with PBS containing 0.05% Tween 20 (PBS-T) two times, and fixed for about ten minutes at room temperature using 10% buffered formalin (Mildform (Trade mark) 10NM, Wako). After washing with PBS-T one time, a 5000-fold diluted solution of anti-rat IgG antibody HRP conjugate (Southern Biotech, 3030-05) in 0.2% FBS/3% BSA/PBS was added to each well (30 μL), and reacted for about one hour at room temperature. After washing with PBS-T four times, a substrate (TMB; 3, 3′, 5, 5′-tetramethylbenzidin) was added to each well (100 μL) to initiate the reaction. After 20 minutes, 2N sulfuric acid was added to each well (100 μL), and absorbance at 450 nm and 550 nm was measured. […] Each antibody bound to human SPNS2 and mouse SPNS2.

mouse SPNS2 [2] = molecular target: T2, mouse SPNS2; assay: Cell ELISA
Protocol: as §1

human SPNS2 [3] = molecular target: T1, human SPNS2; assay: cell-based or functional assay
mouse SPNS2 [4] = molecular target: T2, mouse SPNS2; assay: cell-based or functional assay
human SPNS2 [5] = molecular target: T1, human SPNS2; assay: cell-based or functional assay; remark: listed apart in the source
mouse SPNS2 [6] = molecular target: T2, mouse SPNS2; assay: cell-based or functional assay; remark: listed apart in the source

| Binder | pEC50 (human SPNS2 [1]) | pEC50 (mouse SPNS2 [2]) | Emax (human SPNS2 [1]) | Emax (mouse SPNS2 [2]) | pIC50, S1P transport inhibition (S1PR3 Ca2+ FLIPR bioassay) (human SPNS2 [3]) | pIC50, S1P transport inhibition (S1PR3 Ca2+ FLIPR bioassay) (mouse SPNS2 [4]) | pIC50, S1P transport inhibition (LC-MS/MS of S1P) (human SPNS2 [5]) | pIC50, S1P transport inhibition (LC-MS/MS of S1P) (mouse SPNS2 [6]) |
| --- | --- | --- | --- | --- | --- | --- | --- | --- |
| 82-1109A (antibody, IgG2b, V domains shown) VH: QVQLQQSGVELAKPGSSVKISCKASGNTFTSNYITWIKQTPGQGLEYIGYINTGSGKTYYNEKFKGKATLTADKSSSTAFMQLSSLTPDDSAVYFCASLTGVDYFDDWGQGVMVTVSS VL: DDIVLTQSPALAPSLGQRATISCRASQSVRMSGYNLMHWYQQKPGQQPKLLIYDASKLASGIPARFSGSGSGTDFTLTIDPVQSDDIATYYCQQSKDDPYTFGAGTKLELRR | 7.83 pEC50 (M) | 7.83 pEC50 (M) | – | – | – | – | – | – |
| 64-0807A (antibody, IgG2b, V domains shown) VH: EVQVVESGGGLVQPGRSMKLSCAALGFTFRDYYMAWVRQTPTKGLEWVAAISTGGGNTYYRDSVKGRFTISRDNAKSTLYLQMDSLRSDDTATYYCARNPYGNYFDYWGQGVMVTVSS VL: QFVLSQPNSVSTNLGSTVKLSCKRSTGNIGSNYVHWYQRHEGRSPTTLIYRDDKRPNGVPDRFSGSIDRSSNSALLTINNVQTEDEADYFCQSYSGGMYLFGGGTKLTVL | 8.07 pEC50 (M) | 7.83 pEC50 (M) | 1.83 absorbance | 1.88 absorbance | 7.4 pIC50 (M) | 7.6 pIC50 (M) | 7.5 pIC50 (M) | 7.7 pIC50 (M) |
| 84-1111F (antibody, IgG2b, V domains shown) VH: EVQVVESGGGLVQPGRSMKLSCAALGFTFRDYYMAWVRQTPTKGLEWVAAISTGGGNTYYRDSVKGRFTISRDNAKSTLYLKMDSLRSDDTATYYCARNPYGNYFDYWGQGVMVTVSS VL: QFVLSQPNSVSTNLGSTVKLSCKRSTGNIGSNYVHWYQRHEGRSPTTMIYRDDKRPNGVPDRFSGSIDRSSNSALLTINNVQTEDEADYFCQSYSGGMYLFGGGTTLTVL | 8.75 pEC50 (M) | 8.65 pEC50 (M) | 1.68 absorbance | 1.55 absorbance | 7.7 pIC50 (M) | 8.3 pIC50 (M) | 8.1 pIC50 (M) | 8.3 pIC50 (M) |
| 80-1104A (antibody, IgG2b, V domains shown) VH: EVQLVETGGGLVQPGSSLKLSCSTSGFTFSETWMSWVRQAPGKGLEWVGLIKDKNSNYEANYAESVKGRFTISRDDSKRRVYLQMYTLRDQDTATYYCTSHEDFYYYSSYYFDYWGQGVMVTVSS VL: DIVLTQSPATLSVTPGESVSLSCRASQGISTSIHWYQQKSNESPRLLIKYASQSMSGIPSRFSGSGSGTDFTLRINRVESEDFSVYYCQQSYNLPLTFGSGTKLEIKR | 8.47 pEC50 (M) | 8.32 pEC50 (M) | 1.83 absorbance | 1.61 absorbance | 7.5 pIC50 (M) | 7.8 pIC50 (M) | 7.7 pIC50 (M) | 8 pIC50 (M) |
| 50-0704C (antibody, IgG2b, V domains shown) VH: EVQLVGSGGGLVQPGRSMKLSCEASGFTFSNHYMAWVRQAPTKGLEWVATISTGGGNTYYRDSVKGRFTISRDNARSTLSLQMDSLRSEDTATYYCARQDYSNYMGGFAYWGQGTLVTVSS VL: QFVLTQPNSVSTNLGSTVKLSCTRSIGNIGNNYVNWYKQYEGRSPTTMIYRDDERPDGVPDRFSGSIDRSSNSALLTINSVQTEDEADYFCQSFSSGIFIFGGGTKLTVL | 8.15 pEC50 (M) | 7.75 pEC50 (M) | 1.82 absorbance | 1.9 absorbance | 7.2 pIC50 (M) | 7.6 pIC50 (M) | 7.6 pIC50 (M) | 7.8 pIC50 (M) |
